Assay results taken from the supplement of paper PMC9112550, “Optimization of the antimicrobial peptide Bac7 by deep mutational scanning” (BMC Biology, 2022).

System: Escherichia coli TOP10
Experiment: shrunken log2 fold change of peptide-encoding DNA abundance (4.5 h post-induction vs induction); higher = less antimicrobial activity (less host growth inhibition)
Conditions: time post-induction: 4.5 h; library: site-saturation at positions 5, 18, 19, 20
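Also: peptides expressed intracellularly from a pBAD plasmid library in pooled LB shake-flask culture, induced with 0.3% L-arabinose, DNA abundance read by NGS, three biological replicates, DESeq2 with apeglm shrinkage.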

Row | Sequence | shrunken log2 fold change
1 | RRIRQRPPRLPRPRPRPNTEPRP | -0.0119
2 | RRIRNRPPRLPRPRPRPCMDPRP | -0.129
3 | RRIRFRPPRLPRPRPRPGHAPRP | 0.192
4 | RRIRLRPPRLPRPRPRPWCGPRP | -0.0859
5 | RRIRKRPPRLPRPRPRPCPFPRP | -0.223
6 | RRIRVRPPRLPRPRPRPLDFPRP | -0.147
7 | RRIRGRPPRLPRPRPRPTTWPRP | 0.521
8 | RRIRERPPRLPRPRPRPMCIPRP | -0.133
9 | RRIRNRPPRLPRPRPRPLCTPRP | -0.194
10 | RRIRRRPPRLPRPRPRPQWTPRP | 0.31
11 | RRIRVRPPRLPRPRPRPIWYPRP | -0.146
12 | RRIRCRPPRLPRPRPRPDDVPRP | -0.0387
13 | RRIRCRPPRLPRPRPRPYWFPRP | -0.74
14 | RRIRSRPPRLPRPRPRPTWGPRP | 0.134
15 | RRIRWRPPRLPRPRPRPEPNPRP | 1.23
16 | RRIRWRPPRLPRPRPRPCCIPRP | 0.0413
17 | RRIRARPPRLPRPRPRPQLMPRP | 0.125
18 | RRIRARPPRLPRPRPRPMPHPRP | 0.145
19 | RRIRERPPRLPRPRPRPLGLPRP | -0.00554
20 | RRIRLRPPRLPRPRPRPYYYPRP | -1.03
21 | RRIRKRPPRLPRPRPRPDWLPRP | 0.308
22 | RRIRSRPPRLPRPRPRPPGFPRP | 0.467

Row | Sequence | shrunken log2 fold change
23 | RRIRLRPPRLPRPRPRPHKWPRP | -0.0343
24 | RRIRGRPPRLPRPRPRPRNEPRP | 0.725
25 | RRIRHRPPRLPRPRPRPDAFPRP | -0.0702
26 | RRIRLRPPRLPRPRPRPSYHPRP | -0.686
27 | RRIRARPPRLPRPRPRPEYHPRP | 0.0454
28 | RRIRDRPPRLPRPRPRPGCPPRP | 0.0445
29 | RRIRKRPPRLPRPRPRPFEIPRP | -0.201
30 | RRIRVRPPRLPRPRPRPNEKPRP | -0.0575
31 | RRIRQRPPRLPRPRPRPMVDPRP | -0.00399
32 | RRIRYRPPRLPRPRPRPMTRPRP | -0.139
33 | RRIRFRPPRLPRPRPRPMDFPRP | -0.00674
34 | RRIRSRPPRLPRPRPRPSYMPRP | -1.1
35 | RRIRHRPPRLPRPRPRPRMEPRP | -0.0339
36 | RRIRQRPPRLPRPRPRPILWPRP | -0.185
37 | RRIRRRPPRLPRPRPRPPNAPRP | 1.06
38 | RRIRYRPPRLPRPRPRPYYTPRP | -0.0958
39 | RRIRVRPPRLPRPRPRPVTFPRP | -0.467
40 | RRIRRRPPRLPRPRPRPRWTPRP | 0.453
41 | RRIRVRPPRLPRPRPRPPWTPRP | 0.223
42 | RRIRDRPPRLPRPRPRPCWGPRP | 0.0493
43 | RRIRNRPPRLPRPRPRPQLVPRP | -0.0147
44 | RRIRWRPPRLPRPRPRPHSIPRP | -0.143

Row | Sequence | shrunken log2 fold change
45 | RRIRSRPPRLPRPRPRPTERPRP | 0.142
46 | RRIRNRPPRLPRPRPRPGFVPRP | 0.135
47 | RRIRIRPPRLPRPRPRPCYAPRP | -0.68
48 | RRIRSRPPRLPRPRPRPELNPRP | 0.399
49 | RRIRARPPRLPRPRPRPNMIPRP | -0.194
50 | RRIRTRPPRLPRPRPRPHAPPRP | -0.046
51 | RRIRLRPPRLPRPRPRPSLAPRP | 0.13
52 | RRIRQRPPRLPRPRPRPDWKPRP | 0.0112
53 | RRIRSRPPRLPRPRPRPKKDPRP | 0.104
54 | RRIRERPPRLPRPRPRPMGKPRP | -0.01
55 | RRIRGRPPRLPRPRPRPMVVPRP | 0.434
56 | RRIRIRPPRLPRPRPRPWLLPRP | -0.0948
57 | RRIRCRPPRLPRPRPRPSDGPRP | -0.0084
58 | RRIRIRPPRLPRPRPRPVNAPRP | -0.113
59 | RRIRFRPPRLPRPRPRPCQCPRP | -0.035
60 | RRIRLRPPRLPRPRPRPMDHPRP | -0.00264
61 | RRIRARPPRLPRPRPRPCNWPRP | -0.0619
62 | RRIRFRPPRLPRPRPRPSNNPRP | -0.702
63 | RRIRWRPPRLPRPRPRPEPFPRP | -0.0317
64 | RRIRTRPPRLPRPRPRPWVWPRP | 0.166
65 | RRIRDRPPRLPRPRPRPIVVPRP | 0.218
66 | RRIRKRPPRLPRPRPRPDNKPRP | -0.119

Row | Sequence | shrunken log2 fold change
67 | RRIRNRPPRLPRPRPRPNCFPRP | 0.0424
68 | RRIRFRPPRLPRPRPRPAKFPRP | -0.265
69 | RRIRWRPPRLPRPRPRPITMPRP | -0.0679
70 | RRIRARPPRLPRPRPRPVWYPRP | -0.395
71 | RRIRHRPPRLPRPRPRPAMIPRP | -0.0435
72 | RRIRFRPPRLPRPRPRPCLVPRP | -0.208
73 | RRIRLRPPRLPRPRPRPHNMPRP | -0.495
74 | RRIRERPPRLPRPRPRPTSIPRP | -0.19
75 | RRIRDRPPRLPRPRPRPSPDPRP | 0.312
76 | RRIRCRPPRLPRPRPRPVPCPRP | 0.177
77 | RRIRFRPPRLPRPRPRPHIMPRP | -0.709
78 | RRIRPRPPRLPRPRPRPVLPPRP | 0.11
79 | RRIRIRPPRLPRPRPRPDVVPRP | -0.0365
80 | RRIRFRPPRLPRPRPRPIATPRP | -0.0109
81 | RRIRGRPPRLPRPRPRPQKSPRP | 0.316
82 | RRIRQRPPRLPRPRPRPCMTPRP | 0.0109
83 | RRIRHRPPRLPRPRPRPDLHPRP | -0.0566
84 | RRIRERPPRLPRPRPRPAITPRP | -0.401
85 | RRIRVRPPRLPRPRPRPHVWPRP | -0.145
86 | RRIRVRPPRLPRPRPRPIVVPRP | -0.129
87 | RRIRPRPPRLPRPRPRPGMIPRP | 0.0107
88 | RRIRMRPPRLPRPRPRPHHWPRP | 0.439

Row | Sequence | shrunken log2 fold change
89 | RRIRCRPPRLPRPRPRPEFCPRP | 0.0369
90 | RRIRYRPPRLPRPRPRPNGLPRP | -0.0845
91 | RRIRSRPPRLPRPRPRPCCNPRP | -0.0171
92 | RRIRGRPPRLPRPRPRPFVNPRP | -0.0813
93 | RRIRNRPPRLPRPRPRPVVWPRP | 0.55
94 | RRIRLRPPRLPRPRPRPEAAPRP | 0.732
95 | RRIRPRPPRLPRPRPRPLSGPRP | 0.0234
96 | RRIRIRPPRLPRPRPRPWIAPRP | -0.717
97 | RRIRSRPPRLPRPRPRPQSNPRP | -0.613
98 | RRIRMRPPRLPRPRPRPRKCPRP | 0.0129
99 | RRIRIRPPRLPRPRPRPMPWPRP | 0.306
100 | RRIRGRPPRLPRPRPRPTMTPRP | 2.08
101 | RRIRYRPPRLPRPRPRPYFHPRP | -1.4
102 | RRIRDRPPRLPRPRPRPDACPRP | 0.52
103 | RRIRTRPPRLPRPRPRPALMPRP | 0.165
104 | RRIRARPPRLPRPRPRPWHQPRP | 0.0524
105 | RRIRMRPPRLPRPRPRPEQIPRP | 0.527
106 | RRIRARPPRLPRPRPRPFCHPRP | -0.083
107 | RRIRKRPPRLPRPRPRPLKFPRP | -0.118
108 | RRIRHRPPRLPRPRPRPGKEPRP | -0.0977
109 | RRIRSRPPRLPRPRPRPYIDPRP | -0.071
